In article PMC314469, “Protein Interaction Networks by Proteome Peptide Scanning” (PLoS Biology, 2004) one finds normalised SPOT signal, Boehringer light units (BLU); mean over the file's lines of this peptide data, which are given here for 38 molecules.

The target in assay [1] is endophilin SH3 (SH3G2_HUMAN), Q99962. In words: SPOT array.
Assay [2] deals with T1, amphyphisin SH3 (AMPH_HUMAN), P49418.
T1 chain: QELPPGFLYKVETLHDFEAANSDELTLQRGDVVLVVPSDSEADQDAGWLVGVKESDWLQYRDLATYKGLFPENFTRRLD
As to the kind of experiment: SPOT array.

GVPVPKRPAEGGGG [Q9NY27 58-71]: the results for the normalised SPOT signal, Boehringer light units (BLU); mean over the file's lines of this peptide in assay [1] and in assay [2] were 88.7 and 17.4, respectively.

For the molecule HGRLPARPPFYAPA [Q9Y2L9 5-19], the results for the normalised SPOT signal, Boehringer light units (BLU); mean over the file's lines of this peptide in assay [1] and in assay [2] were 775 and 33.8, respectively.

Turning to GWRSLQRPARRSGR [Q99700 27-40], the values for the normalised SPOT signal, Boehringer light units (BLU); mean over the file's lines of this peptide in assay [1] and in assay [2] were 39.1 and 2550, respectively.

Consider GWIQPRRPRDPTPS [Q14137 202-215], for which the figures for the normalised SPOT signal, Boehringer light units (BLU); mean over the file's lines of this peptide in assay [1] and in assay [2] were 836 and 76.8, respectively.

For HHPWIRRPFFPFHS [P02511 6-19], the results for the normalised SPOT signal, Boehringer light units (BLU); mean over the file's lines of this peptide in assay [1] and in assay [2] were 1870 and 17.6, respectively.

On to HLSSPARPPDNLSP [Q9H7P8 659-673], for which the results for the normalised SPOT signal, Boehringer light units (BLU); mean over the file's lines of this peptide in assay [1] and in assay [2] were 76.9 and 95.5, respectively.

For the molecule HLLLFHRPLRASGA [Q9HBK7 243-256], the figures for the normalised SPOT signal, Boehringer light units (BLU); mean over the file's lines of this peptide in assay [1] and in assay [2] were 33.5 and 1690, respectively.

Take GYPAFKRPHMTAKD [Q96LM6 67-80]: the normalised SPOT signal, Boehringer light units (BLU); mean over the file's lines of this peptide came out at 97.4 in assay [1] and 31.1 in assay [2].

Turning to HAPRIKRPRLQVVK [Q96S08 292-305], the normalised SPOT signal, Boehringer light units (BLU); mean over the file's lines of this peptide turned out to be 33.2 in assay [1] and 36.2 in assay [2].

With HGRGLKRPGKKGSN [Q99848 277-290], the normalised SPOT signal, Boehringer light units (BLU); mean over the file's lines of this peptide was determined as 71.6 in assay [1] and 26 in assay [2].

For the molecule GYGLLVRPSRVRRA [O75134 505-518], the normalised SPOT signal, Boehringer light units (BLU); mean over the file's lines of this peptide in assay [1] is 747; in assay [2], 2560.

On to HDDPPQKPPRSITL [Q9Y5K9 654-668], for which the normalised SPOT signal, Boehringer light units (BLU); mean over the file's lines of this peptide in assay [1] was found to be 133; in assay [2] it was 8230.

As to GYDRLRRPGSRSKH [Q9C004 264-277], the normalised SPOT signal, Boehringer light units (BLU); mean over the file's lines of this peptide in assay [1] was 142; in assay [2], 30.6.

Regarding GVSKPRKPPMVMTP [Q9Y6X0 438-452], the normalised SPOT signal, Boehringer light units (BLU); mean over the file's lines of this peptide in assay [1] was determined as 328; in assay [2], 58.3.

Take HKGLPPRPPSHNRP [Q9P2Q2 580-594]: the normalised SPOT signal, Boehringer light units (BLU); mean over the file's lines of this peptide in assay [1] worked out at 5020; in assay [2] it was 326.

As for ALPPPPRPDRGPPG [Q02833 302-315], the normalised SPOT signal, Boehringer light units (BLU); mean over the file's lines of this peptide in assay [1] is 4520; in assay [2], 847.

For the molecule ALPLPRRPSALPPK [Q96MH8 48-61], the figures for the normalised SPOT signal, Boehringer light units (BLU); mean over the file's lines of this peptide in assay [1] and in assay [2] were 5800 and 151, respectively.

On to GYDSLRRPGSRSKR [O43610 251-264], for which the normalised SPOT signal, Boehringer light units (BLU); mean over the file's lines of this peptide in assay [1] came out at 141; in assay [2] it was 31.2.

In the case of GYTGPPRPPPYGYQ [Q15427 383-397], the figures for the normalised SPOT signal, Boehringer light units (BLU); mean over the file's lines of this peptide in assay [1] and in assay [2] were 577 and 61.8, respectively.

As to HALHPARPARDHLD [Q9H7M8 395-408], the normalised SPOT signal, Boehringer light units (BLU); mean over the file's lines of this peptide in assay [1] turned out to be 1270; in assay [2], 4580.

With HGKGFSRPARPANR [O43158 529-542], the normalised SPOT signal, Boehringer light units (BLU); mean over the file's lines of this peptide in assay [1] came out at 5.2; in assay [2], 3230.

HIPPPPRPPKRILE [P18031 304-318]: the normalised SPOT signal, Boehringer light units (BLU); mean over the file's lines of this peptide in assay [1] is 4140; in assay [2] it was 3540.

Take HHHLPERPPFIPEG [O60747 405-419]: the normalised SPOT signal, Boehringer light units (BLU); mean over the file's lines of this peptide in assay [1] was determined as 22.2; in assay [2], 18.

For GWGSPRRPTEAEAR [Q14767 91-104], the normalised SPOT signal, Boehringer light units (BLU); mean over the file's lines of this peptide in assay [1] was determined as 194; in assay [2], 23.4.

Take GYQAFRRPSYSWGV [O14842 113-126]: the figures for the normalised SPOT signal, Boehringer light units (BLU); mean over the file's lines of this peptide in assay [1] and in assay [2] were 229 and 35, respectively.

Regarding HILLFRRPLPKDQQ [P33552 65-78], the normalised SPOT signal, Boehringer light units (BLU); mean over the file's lines of this peptide in assay [1] stood at 40; in assay [2] it was 12.1.

Regarding HILLFRRPLPKKPK [P33551 65-78], the normalised SPOT signal, Boehringer light units (BLU); mean over the file's lines of this peptide was determined as 153 in assay [1] and 34.4 in assay [2].

Take GWGSPGRPKKKHTG [O94987 842-855]: the normalised SPOT signal, Boehringer light units (BLU); mean over the file's lines of this peptide in assay [1] turned out to be 317; in assay [2] it was 135.

HGRAPRRPSGPGPP [P21917 231-244]: the normalised SPOT signal, Boehringer light units (BLU); mean over the file's lines of this peptide in assay [1] was 11100; in assay [2] it was 35.4.

In the case of HLAFLKRPELGLTL [O15488 104-117], the normalised SPOT signal, Boehringer light units (BLU); mean over the file's lines of this peptide in assay [1] was found to be 28.8; in assay [2], 36.5.

On to HSDYLNRPHKSIHR [P21675 1363-1376], for which the normalised SPOT signal, Boehringer light units (BLU); mean over the file's lines of this peptide in assay [1] was 89.2; in assay [2], 116.

As for ALPRPIRPHRNISA [O75163 275-288], the normalised SPOT signal, Boehringer light units (BLU); mean over the file's lines of this peptide in assay [1] worked out at 5490; in assay [2], 7780.

Regarding HLHILHRPWKSGLS [Q9P2Y4 181-194], the normalised SPOT signal, Boehringer light units (BLU); mean over the file's lines of this peptide came out at 28.3 in assay [1] and 217 in assay [2].

HAQSLSRPLKQTPI [O60292 454-467]: the normalised SPOT signal, Boehringer light units (BLU); mean over the file's lines of this peptide in assay [1] is 153; in assay [2] it was 58.3.

On to HKAHLIRPRRLTPG [O60281 1125-1138], for which the normalised SPOT signal, Boehringer light units (BLU); mean over the file's lines of this peptide in assay [1] is 1790; in assay [2], 1070.

Regarding GWATPRRPAGLLML [O60449 4-17], the figures for the normalised SPOT signal, Boehringer light units (BLU); mean over the file's lines of this peptide in assay [1] and in assay [2] were 247 and 48.3, respectively.

Take HHGRIGRPPKYRKI [Q9Y4C9 401-414]: the normalised SPOT signal, Boehringer light units (BLU); mean over the file's lines of this peptide in assay [1] is 150; in assay [2], 160.

On to HGSFLARPSRKNQG [P29350 24-37], for which the normalised SPOT signal, Boehringer light units (BLU); mean over the file's lines of this peptide in assay [1] stood at 308; in assay [2], 2390.
